Experimental data published in IntAct's records for PubMed 23374343.

B1: Sialic acid-binding Ig-like lectin 10 (Mus musculus), Q80ZE3 (parent)
chain: MSLLLFLLSFLLDGPQGQMESYFLQVQRIVKAQEGLCIFVPCSFSSPEGKWLNRSPLYGYWFKGIRKPSLSFPVATNNKDKVLEWEARGRFQLLGDISKKNCSLLIKDVQWGDSTNYFFRMERGFERFSFKEEFRLQVEALTQKPDIFIPEVLEPGEPVTVVCLFSWTFNQCPAPSFSWMGDAVSFQESRPHTSNYSVLSFIPGLQHHDTELTCQLDFSRMSTQRTVRLRVAYAPRSLAISIFHDNVSVPDLHENPSHLEVQQGQSLRLLCTADSQPPATLSWVLEDQVLSWSSPVGSRTLALELPWVKAGDSGHYTCQAENRLGSQQHTLDLSVLYPPQDLRVTVSQANRTVLEILRNAISLPVLEGQSLCLVCVTYSNPPANVSWAWVTQTLIPIQSSEPGVLELPLVQREHEGEFTCAAQNPLGAQRISLSLSVHYPPQMSSPSCSWEAKGLHCNCSSRAWPAPSLRWRLGEGLLEGNSSNASFTVTFSSLGPWVNSSLSLLQELGPSLWLSCESWNTHGAQTTSVLLLPDKDSATAFSKGAVLGFGITALLALCLIVVIVKTLQKKGTQEEPSRPKLSRGSTILDYINVVPKTRSLARNWKAEPDAPSRSSPLDTHFPKPKKKQKDPHFTYPGCPDPTSSSQVPVSENNPEELHYAALNFSRLRLQETQDPQDTYSDYTEVRVH
partner: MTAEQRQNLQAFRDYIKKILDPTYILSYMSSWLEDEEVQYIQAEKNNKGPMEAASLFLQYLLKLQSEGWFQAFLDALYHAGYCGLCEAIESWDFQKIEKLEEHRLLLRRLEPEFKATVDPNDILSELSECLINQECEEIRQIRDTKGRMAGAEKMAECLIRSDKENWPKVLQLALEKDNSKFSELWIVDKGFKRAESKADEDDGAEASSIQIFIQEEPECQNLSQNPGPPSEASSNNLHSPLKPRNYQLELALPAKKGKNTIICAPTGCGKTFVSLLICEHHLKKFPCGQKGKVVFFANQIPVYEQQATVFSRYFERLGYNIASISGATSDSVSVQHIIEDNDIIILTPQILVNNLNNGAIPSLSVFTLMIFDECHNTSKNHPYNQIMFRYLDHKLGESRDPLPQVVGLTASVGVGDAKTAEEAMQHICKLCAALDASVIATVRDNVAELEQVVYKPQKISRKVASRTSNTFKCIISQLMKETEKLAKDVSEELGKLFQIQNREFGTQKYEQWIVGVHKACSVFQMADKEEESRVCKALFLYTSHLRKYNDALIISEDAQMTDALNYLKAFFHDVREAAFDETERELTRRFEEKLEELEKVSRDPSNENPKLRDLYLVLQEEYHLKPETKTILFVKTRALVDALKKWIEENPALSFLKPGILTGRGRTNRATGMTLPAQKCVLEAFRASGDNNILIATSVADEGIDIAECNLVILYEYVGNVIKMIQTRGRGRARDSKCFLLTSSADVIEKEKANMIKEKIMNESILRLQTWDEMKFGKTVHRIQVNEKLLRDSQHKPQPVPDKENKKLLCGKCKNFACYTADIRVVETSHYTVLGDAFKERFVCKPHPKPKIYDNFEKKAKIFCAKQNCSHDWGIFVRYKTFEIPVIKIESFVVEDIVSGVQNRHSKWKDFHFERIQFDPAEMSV

Variants of: B1
Conditions: with rigi_mouse Rigi

Row | Variant | effect of a mutation on the interaction
1 | Y590F;Y635F;Y659F;Y679F | decreasing interaction strength
